Results: patent US7794964B2, “Biochip for the detection of phosphorylation and the detection method using the same” (Korea Atomic Energy Research Institute, priority 2008, dated 2010)

Experiments:
cdc2 protein kinase = cdc2 protein kinase (Homo sapiens, UniProt P06493); experiment: Phosphorylation of cdc2 protein kinase substrate on biochip using [γ-32P]ATP; type: biochemical; conditions: 1.0 mg/ml substrate on aldehyde treated slide glass; 10 unit/ml cdc2 protein kinase; 0.1 μCi/μl [γ-32P]ATP; BSA negative control
Description: (§1) To fix substrate on the aldehyde-treated slide glass (Nuricell Inc., Korea), 0.1 mg/ml of the Mep45-kinase substrate fusion protein or 1.25 μg/ml of peptide substrate (Promega, Madison, Wis.) was integrated. Particularly, the recombinant Mep45-kinase substrate fusion protein solution (10% glycerol, PBS, pH 7.5) was prepared at the concentration of 0.1 mg/ml, and this substrate solution was integrated on the aldehyde-treated slide glass at the spot intervals of 300 μm by using microarray device (Genetix Ltd, UK). The size of the spot was regulated to be 300 μm. The integrated biochip was reacted in a humid chamber at room temperature for one hour, leading to fixation.
(§2) The biochip constructed in Example 2 was washed three times with PBS (200 mM NaCl, 3 mM KCl, 2 mM KH2PO4, 1 mM Na2HPO4, pH 7.5), followed by reaction of the kinase and substrate on the chip. Particularly, the chip was washed with kinase buffer (40 mM Tris-HCl, 20 mM MgCl2, 0.1 mg/ml BSA, pH 7.5) once. […]
1.0 mg/ml of PKTPKKAKKL (SEQ. ID. NO: 2) and Mep45 fusion substrate were integrated on the aldehyde treated slide glass, followed by phosphorylation using 10 unit/ml of cdc2 protein kinase and 0.1 μCi/μl of [γ-^32P]ATP. Phosphorylation was measured by using X-ray film or X-ray fluorescence spectrometer. […]

PKC (Protein Kinase C) = experiment: Phosphorylation of PKC substrate on biochip using [γ-32P]ATP; type: biochemical; conditions: 0.3 mg/ml substrate on aldehyde treated slide glass; 10 unit/ml PKC; 0.1 μCi/μl [γ-32P]ATP; BSA negative control
Description: as §1, §2
0.3 mg/ml of AAKIQASFRGHMARKK (SEQ. ID. NO: 1) and Mep45 fusion substrate were integrated on the aldehyde treated slide glass, followed by phosphorylation using 10 unit/ml of PKC and 0.1 μCi/μl of [γ-^32P]ATP. Phosphorylation was measured by using X-ray film or X-ray fluorescence spectrometer. […]

Chain of cdc2 protein kinase (P06493 whole entry, the tested form may be a part): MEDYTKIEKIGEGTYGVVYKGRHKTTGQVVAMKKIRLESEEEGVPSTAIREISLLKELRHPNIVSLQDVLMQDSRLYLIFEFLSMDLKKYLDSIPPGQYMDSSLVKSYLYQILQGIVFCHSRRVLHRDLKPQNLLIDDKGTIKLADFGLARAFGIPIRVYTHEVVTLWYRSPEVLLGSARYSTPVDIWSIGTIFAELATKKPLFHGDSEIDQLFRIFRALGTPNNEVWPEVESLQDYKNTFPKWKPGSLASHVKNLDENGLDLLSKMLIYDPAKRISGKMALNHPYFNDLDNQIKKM
Chain of cdc2 protein kinase (P14635 whole entry partner, the tested form may be a part): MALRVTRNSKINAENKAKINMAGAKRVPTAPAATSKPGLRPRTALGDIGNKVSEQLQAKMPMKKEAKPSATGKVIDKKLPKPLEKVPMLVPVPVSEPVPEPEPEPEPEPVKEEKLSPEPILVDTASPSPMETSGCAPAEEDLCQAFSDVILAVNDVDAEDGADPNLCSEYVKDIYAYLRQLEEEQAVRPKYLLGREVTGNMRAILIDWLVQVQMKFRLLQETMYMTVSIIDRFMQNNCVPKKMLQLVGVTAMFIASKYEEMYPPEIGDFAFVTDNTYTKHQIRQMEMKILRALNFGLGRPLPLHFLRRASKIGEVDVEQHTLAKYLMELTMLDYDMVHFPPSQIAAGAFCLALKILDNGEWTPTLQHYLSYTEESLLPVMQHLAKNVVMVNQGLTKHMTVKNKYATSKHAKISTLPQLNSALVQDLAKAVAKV

PKTPKKAKKL (cdc2 Protein Kinase substrate) [peptide substrate for cdc2-PK (cdc2 Protein Kinase)]
phosphorylation signal on the spot (X-ray film or X-ray fluorescence spectrometer) (cdc2 protein kinase): clear signal was detected

AAKIQASFRGHMARKK (Protein Kinase C substrate) [peptide substrate for PKC (Protein Kinase C)]
phosphorylation signal on the spot (X-ray film or X-ray fluorescence spectrometer) (PKC (Protein Kinase C)): clear signal was detected
